Laboratory results from publication PMC9546227, “Cysteines have a role in conformation of the UVR8 photoreceptor” (The Plant Journal, 2022).
Changes are numbered by the printed parent chain. In names and notes the source's numbering stands. One block for each binder: values may come before it.

Columns and labels:
[1] = target: T1, UV … LOCUS 8 (UVR8), wild-type, purified (Arabidopsis thaliana), Q9FN03; assay: SDS-PAGE with non-boiled samples; purified protein not exposed to UV-B; 10% gel, Coomassie stain; dimer to monomers; conditions: remark: other sources report otherwise
T1 chain: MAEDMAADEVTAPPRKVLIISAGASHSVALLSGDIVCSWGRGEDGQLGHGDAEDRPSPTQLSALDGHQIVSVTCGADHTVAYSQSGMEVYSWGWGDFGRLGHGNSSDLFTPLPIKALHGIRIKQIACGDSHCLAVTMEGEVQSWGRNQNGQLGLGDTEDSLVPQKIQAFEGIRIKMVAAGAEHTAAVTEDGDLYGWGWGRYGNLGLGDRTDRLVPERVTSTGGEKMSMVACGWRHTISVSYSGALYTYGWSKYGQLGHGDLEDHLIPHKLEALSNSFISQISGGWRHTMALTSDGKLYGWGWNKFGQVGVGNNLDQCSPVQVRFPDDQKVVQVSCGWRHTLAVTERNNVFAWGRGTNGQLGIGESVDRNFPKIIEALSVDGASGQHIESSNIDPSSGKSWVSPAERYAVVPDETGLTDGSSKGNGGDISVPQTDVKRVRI

[2] = target: the molecule itself; assay: SDS-PAGE with non-boiled samples; protein extracts of 14-day-old plants not exposed to UV-B (also after return to white light following UV-B, re-dimerization); immunoblot with anti-UVR8-C; dimer to monomers
[3] = target: the molecule itself; assay: SDS-PAGE with non-boiled samples; purified protein not exposed to UV-B; 10% gel, Coomassie stain; dimer to monomers

- stoichiometry N [1]: 2
B1: UV … LOCUS 8 (UVR8), wild-type, purified, Q9FN03 1-440 (natural protein)
chain: T1 chain

B2: GFP-UVR8^C231S,C335S (uvr8-1/35Spro:GFP-UVR8^C231S,C335S plants) (natural protein, Arabidopsis thaliana, UniProt Q9FN03 1-440, looked up)
chain: T1 chain with C231S, C335S
notes: UVR8, Arabidopsis thaliana, with C231S and C335S; Cloned into the pEZR(K)L-C vector by the methods of Cloix et al. (2012); also called GFP-UVR8^SS; source: transgenic Arabidopsis uvr8-1/CaMV35Spro:GFP-UVR8^C231S,C335S, in protein extract
- stoichiometry N [2]: 2

B3: UVR8^C231S,C335S, purified (natural protein, Arabidopsis thaliana, UniProt Q9FN03 1-440, looked up)
chain: T1 chain with C231S, C335S
notes: UVR8, Arabidopsis thaliana, with C231S and C335S; also called UVR8^SS; source: E. coli, purified (as detailed by Christie et al., 2012)
- stoichiometry N [3]: 2
